Where a chain is given by its changes, count along the chain named.
B1: SEQ ID NO: 480 (Y61, E at L31) (antibody, V domains shown)
VH: QVQLVQSGGGVVQPGRSLRLSCAASGFTFSSYGMHWVRQAPGKGLEWVAFIRYDGSNKYYADSVKGRFTISRDNSKNTLYLQMKSLRAEDTAVYYCKTHGSHDNWGQGTMVTVSS
VL: SYVLTQPPSVSGTPGQRVTISCSGGRSNIGSETVKWYQQLPGTAPKLLIYGNDQRPSGVPDRFSGSKSGTSASLAITGVQAEDEADYYCQSYDRGTHPALLFGTGTKVTVLG
B2: SEQ ID NO: 492 (Y61, C at L32) (antibody, V domains shown)
VH: B1 VH
VL: B1 VL with E32N, T33C
B3: SEQ ID NO: 481 (Y61, S at L31) (antibody, V domains shown)
VH: B1 VH
VL: B1 VL with E32S
B4: SEQ ID NO: 505 (Y61, P at L32) (antibody, V domains shown)
VH: B1 VH
VL: B1 VL with E32N, T33P
B5: SEQ ID NO: 486 (Y61, Q at L31) (antibody, V domains shown)
VH: B1 VH
VL: B1 VL with E32Q
B6: SEQ ID NO: 489 (Y61, M at L31) (antibody, V domains shown)
VH: B1 VH
VL: B1 VL with E32M
B7: SEQ ID NO: 499 (Y61, Q at L32) (antibody, V domains shown)
VH: B1 VH
VL: B1 VL with E32N, T33Q
B8: SEQ ID NO: 490 (Y61, I at L31) (antibody, V domains shown)
VH: B1 VH
VL: B1 VL with E32I
B9: SEQ ID NO: 494 (Y61, Y at L32) (antibody, V domains shown)
VH: B1 VH
VL: B1 VL with E32N, T33Y
B10: SEQ ID NO: 491 (Y61, D at L32) (antibody, V domains shown)
VH: B1 VH
VL: B1 VL with E32N, T33D
B11: SEQ ID NO: 483 (Y61, H at L31) (antibody, V domains shown)
VH: B1 VH
VL: B1 VL with E32H
B12: SEQ ID NO: 487 (Y61, T at L31) (antibody, V domains shown)
VH: B1 VH
VL: B1 VL with E32T
B13: SEQ ID NO: 484 (Y61, K at L31) (antibody, V domains shown)
VH: B1 VH
VL: B1 VL with E32K
B14: SEQ ID NO: 504 (Y61, I at L32) (antibody, V domains shown)
VH: B1 VH
VL: B1 VL with E32N, T33I
B15: SEQ ID NO: 488 (Y61, G at L31) (antibody, V domains shown)
VH: B1 VH
VL: B1 VL with E32G
B16: SEQ ID NO: 498 (Y61, N at L32) (antibody, V domains shown)
VH: B1 VH
VL: B1 VL with E32N, T33N
B17: SEQ ID NO: 503 (Y61, L at L32) (antibody, V domains shown)
VH: B1 VH
VL: B1 VL with E32N, T33L
B18: SEQ ID NO: 482 (Y61, Y at L31) (antibody, V domains shown)
VH: B1 VH
VL: B1 VL with E32Y
B19: SEQ ID NO: 497 (Y61, R at L32) (antibody, V domains shown)
VH: B1 VH
VL: B1 VL with E32N, T33R
B20: SEQ ID NO: 502 (Y61, V at L32) (antibody, V domains shown)
VH: B1 VH
VL: B1 VL with E32N, T33V
B21: SEQ ID NO: 493 (Y61, S at L32) (antibody, V domains shown)
VH: B1 VH
VL: B1 VL with E32N, T33S
B22: SEQ ID NO: 496 (Y61, K at L32) (antibody, V domains shown)
VH: B1 VH
VL: B1 VL with E32N, T33K
B23: SEQ ID NO: 495 (Y61, H at L32) (antibody, V domains shown)
VH: B1 VH
VL: B1 VL with E32N, T33H
B24: SEQ ID NO: 501 (Y61, A at L32) (antibody, V domains shown)
VH: B1 VH
VL: B1 VL with E32N, T33A
B25: SEQ ID NO: 519 (Y61, V at L50) (antibody, V domains shown)
VH: B1 VH
VL: B1 VL with E32N, G51V
B26: SEQ ID NO: 507 (Y61, E at L50) (antibody, V domains shown)
VH: B1 VH
VL: B1 VL with E32N, G51E
B27: SEQ ID NO: 521 (Y61, L at L50) (antibody, V domains shown)
VH: B1 VH
VL: B1 VL with E32N, G51L
B28: SEQ ID NO: 515 (Y61, Q at L50) (antibody, V domains shown)
VH: B1 VH
VL: B1 VL with E32N, G51Q
B29: SEQ ID NO: 509 (Y61, S at L50) (antibody, V domains shown)
VH: B1 VH
VL: B1 VL with E32N, G51S
B30: SEQ ID NO: 520 (Y61, M at L50) (antibody, V domains shown)
VH: B1 VH
VL: B1 VL with E32N, G51M
B31: SEQ ID NO: 508 (Y61, C at L50) (antibody, V domains shown)
VH: B1 VH
VL: B1 VL with E32N, G51C
B32: SEQ ID NO: 506 (Y61, D at L50) (antibody, V domains shown)
VH: B1 VH
VL: B1 VL with E32N, G51D
B33: SEQ ID NO: 511 (Y61, H at L50) (antibody, V domains shown)
VH: B1 VH
VL: B1 VL with E32N, G51H
B34: SEQ ID NO: 518 (Y61, A at L50) (antibody, V domains shown)
VH: B1 VH
VL: B1 VL with E32N, G51A
B35: SEQ ID NO: 525 (Y61, F at L50) (antibody, V domains shown)
VH: B1 VH
VL: B1 VL with E32N, G51F
B36: SEQ ID NO: 522 (Y61, I at L50) (antibody, V domains shown)
VH: B1 VH
VL: B1 VL with E32N, G51I
B37: SEQ ID NO: 526 (Y61, S at L53) (antibody, V domains shown)
VH: B1 VH
VL: B1 VL with E32N, Q54S
B38: SEQ ID NO: 512 (Y61, K at L50) (antibody, V domains shown)
VH: B1 VH
VL: B1 VL with E32N, G51K
B39: SEQ ID NO: 516 (Y61, T at L50) (antibody, V domains shown)
VH: B1 VH
VL: B1 VL with E32N, G51T
B40: SEQ ID NO: 514 (Y61, N at L50) (antibody, V domains shown)
VH: B1 VH
VL: B1 VL with E32N, G51N
B41: SEQ ID NO: 524 (Y61, W at L50) (antibody, V domains shown)
VH: B1 VH
VL: B1 VL with E32N, G51W
B42: SEQ ID NO: 527 (Y61, Y at L53) (antibody, V domains shown)
VH: B1 VH
VL: B1 VL with E32N, Q54Y
B43: SEQ ID NO: 513 (Y61, R at L50) (antibody, V domains shown)
VH: B1 VH
VL: B1 VL with E32N, G51R
B44: SEQ ID NO: 523 (Y61, P at L50) (antibody, V domains shown)
VH: B1 VH
VL: B1 VL with E32N, G51P

Biological target: T1, human interleukin 12 (p70 heterodimer of p35 and p40) (human, UniProt P29459 23-219; P29460 23-328)
T1 construct: Recombinant human IL-12; also called hIL-12; IL-12
T1 sequence (looked up) 1: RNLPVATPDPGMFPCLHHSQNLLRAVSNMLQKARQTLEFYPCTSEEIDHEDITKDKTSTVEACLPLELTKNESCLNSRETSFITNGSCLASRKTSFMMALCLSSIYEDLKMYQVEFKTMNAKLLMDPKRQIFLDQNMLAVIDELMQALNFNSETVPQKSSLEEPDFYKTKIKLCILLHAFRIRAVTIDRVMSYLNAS
T1 sequence (looked up) 2: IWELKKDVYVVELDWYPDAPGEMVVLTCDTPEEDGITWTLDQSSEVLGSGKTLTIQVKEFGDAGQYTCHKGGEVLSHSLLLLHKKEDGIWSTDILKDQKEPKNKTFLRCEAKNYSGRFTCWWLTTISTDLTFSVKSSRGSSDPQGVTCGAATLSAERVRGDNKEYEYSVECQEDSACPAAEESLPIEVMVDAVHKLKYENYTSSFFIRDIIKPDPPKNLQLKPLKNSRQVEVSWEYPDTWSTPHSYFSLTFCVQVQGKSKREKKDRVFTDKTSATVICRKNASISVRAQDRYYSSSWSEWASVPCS
Assay: SPR (BIAcore), off-rate

Binder	koff
B1	0.000384 s⁻¹
B2	0.00381 s⁻¹
B3	0.000392 s⁻¹
B4	0.000424 s⁻¹
B5	0.000292 s⁻¹
B6	0.000174 s⁻¹
B7	0.00247 s⁻¹
B8	9.7e-05 s⁻¹
B9	0.000213 s⁻¹
B10	0.000252 s⁻¹
B11	0.000315 s⁻¹
B12	0.000309 s⁻¹
B13	0.000331 s⁻¹
B14	0.00154 s⁻¹
B15	0.000366 s⁻¹
B16	0.00197 s⁻¹
B17	0.00215 s⁻¹
B18	0.000357 s⁻¹
B19	0.0069 s⁻¹
B20	0.00164 s⁻¹
B21	0.00191 s⁻¹
B22	0.000318 s⁻¹
B23	0.00026 s⁻¹
B24	0.00191 s⁻¹

Biological target: T1, human interleukin 12 (p70 heterodimer …)
Assay: SPR (BIAcore), off-rate
Remark: another data set of the same source

Binder	koff
B25	0.000385 s⁻¹
B26	0.000617 s⁻¹
B27	0.000616 s⁻¹
B28	0.000348 s⁻¹
B29	0.000286 s⁻¹
B30	0.000953 s⁻¹
B31	0.000467 s⁻¹
B32	0.000348 s⁻¹
B33	0.000761 s⁻¹
B34	0.000372 s⁻¹
B35	0.0348 s⁻¹
B36	0.0012 s⁻¹
B37	0.000866 s⁻¹
B38	0.00243 s⁻¹
B39	0.000272 s⁻¹
B40	0.000305 s⁻¹
B41	0.000382 s⁻¹
B42	0.000733 s⁻¹
B43	0.000444 s⁻¹
B44	0.00041 s⁻¹
